Laboratory results reported in patent US20230272029A1, “CO-AGONISTS AT GLP-1 AND GIP RECEPTORS SUITABLE FOR ORAL DELIVERY” (Novo Nordisk A/S, priority 2020, published 2023).
Starred links: 1 amine or outer side, 2 acyl side, 3 side chain; linkers in the order of their positions; H or OH if unused. Non-standard residues stand in square brackets, D forms with d. Groups on a side chain read outwards from the residue. No end group written: not given here. *: point of attachment. C18 diacid = O=C(O)CCCCCCCCCCCCCCCCC(=O)*; C16 diacid = O=C(O)CCCCCCCCCCCCCCC(=O)*; γGlu = O=C(O)[C@H](CCC(=O)[*:2])N[*:1]; εLys = N[C@@H](CCCCN[*:1])C(=O)[*:2]; AEEA = NCCOCCOCC(=O)O; Aib = CC(C)(N)C(=O)O

T1: human GIP receptor (human, UniProt P48546 22-466)
T1 sequence (looked up): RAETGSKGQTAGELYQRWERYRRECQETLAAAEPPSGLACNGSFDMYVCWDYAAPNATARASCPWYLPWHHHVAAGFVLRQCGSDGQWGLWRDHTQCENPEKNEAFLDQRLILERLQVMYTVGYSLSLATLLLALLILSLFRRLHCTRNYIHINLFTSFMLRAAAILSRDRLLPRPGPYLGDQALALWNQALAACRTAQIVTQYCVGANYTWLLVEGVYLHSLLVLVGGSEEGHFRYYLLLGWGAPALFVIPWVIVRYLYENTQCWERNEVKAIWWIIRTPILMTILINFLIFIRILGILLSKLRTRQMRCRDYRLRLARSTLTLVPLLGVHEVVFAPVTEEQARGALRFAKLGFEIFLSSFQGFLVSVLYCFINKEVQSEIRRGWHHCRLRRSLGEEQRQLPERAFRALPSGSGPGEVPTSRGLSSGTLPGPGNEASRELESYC

B1: Compound No. 7 (peptide)
peptide: Y[Aib]EGTFTSDYSIYLEK([AEEA-AEEA-γGlu-C18 diacid])QAAREFVNWLLAGGPSSGAPPPS-NH2
modifications: N-terminus assumed
SMILES: CC[C@H](C)[C@H](NC(=O)[C@H](CO)NC(=O)[C@H](Cc1ccc(O)cc1)NC(=O)[C@H](CC(=O)O)NC(=O)[C@H](CO)NC(=O)[C@@H](NC(=O)[C@H](Cc1ccccc1)NC(=O)[C@@H](NC(=O)CNC(=O)[C@H](CCC(=O)O)NC(=O)C(C)(C)NC(=O)[C@@H](N)Cc1ccc(O)cc1)[C@@H](C)O)[C@@H](C)O)C(=O)N[C@@H](Cc1ccc(O)cc1)C(=O)N[C@@H](CC(C)C)C(=O)N[C@@H](CCC(=O)O)C(=O)N[C@@H](CCCCNC(=O)COCCOCCNC(=O)COCCOCCNC(=O)CC[C@H](NC(=O)CCCCCCCCCCCCCCCCC(=O)O)C(=O)O)C(=O)N[C@@H](CCC(N)=O)C(=O)N[C@@H](C)C(=O)N[C@@H](C)C(=O)N[C@@H](CCCNC(=N)N)C(=O)N[C@@H](CCC(=O)O)C(=O)N[C@@H](Cc1ccccc1)C(=O)N[C@H](C(=O)N[C@@H](CC(N)=O)C(=O)N[C@@H](Cc1c[nH]c2ccccc12)C(=O)N[C@@H](CC(C)C)C(=O)N[C@@H](CC(C)C)C(=O)N[C@@H](C)C(=O)NCC(=O)NCC(=O)N1CCC[C@H]1C(=O)N[C@@H](CO)C(=O)N[C@@H](CO)C(=O)NCC(=O)N[C@@H](C)C(=O)N1CCC[C@H]1C(=O)N1CCC[C@H]1C(=O)N1CCC[C@H]1C(=O)N[C@@H](CO)C(N)=O)C(C)C
B2: Compound No. 6 (peptide)
peptide: Y[Aib]EGTFTSDYSIYLEK([εLys-εLys-γGlu-C18 diacid])QAAREFVNWLLAGGPSSGAPPPS-NH2
modifications: N-terminus assumed
SMILES: CC[C@H](C)[C@H](NC(=O)[C@H](CO)NC(=O)[C@H](Cc1ccc(O)cc1)NC(=O)[C@H](CC(=O)O)NC(=O)[C@H](CO)NC(=O)[C@@H](NC(=O)[C@H](Cc1ccccc1)NC(=O)[C@@H](NC(=O)CNC(=O)[C@H](CCC(=O)O)NC(=O)C(C)(C)NC(=O)[C@@H](N)Cc1ccc(O)cc1)[C@@H](C)O)[C@@H](C)O)C(=O)N[C@@H](Cc1ccc(O)cc1)C(=O)N[C@@H](CC(C)C)C(=O)N[C@@H](CCC(=O)O)C(=O)N[C@@H](CCCCNC(=O)[C@@H](N)CCCCNC(=O)[C@@H](N)CCCCNC(=O)CC[C@H](NC(=O)CCCCCCCCCCCCCCCCC(=O)O)C(=O)O)C(=O)N[C@@H](CCC(N)=O)C(=O)N[C@@H](C)C(=O)N[C@@H](C)C(=O)N[C@@H](CCCNC(=N)N)C(=O)N[C@@H](CCC(=O)O)C(=O)N[C@@H](Cc1ccccc1)C(=O)N[C@H](C(=O)N[C@@H](CC(N)=O)C(=O)N[C@@H](Cc1c[nH]c2ccccc12)C(=O)N[C@@H](CC(C)C)C(=O)N[C@@H](CC(C)C)C(=O)N[C@@H](C)C(=O)NCC(=O)NCC(=O)N1CCC[C@H]1C(=O)N[C@@H](CO)C(=O)N[C@@H](CO)C(=O)NCC(=O)N[C@@H](C)C(=O)N1CCC[C@H]1C(=O)N1CCC[C@H]1C(=O)N1CCC[C@H]1C(=O)N[C@@H](CO)C(N)=O)C(C)C
B3: Compound No. 5 (peptide)
peptide: Y[Aib]EGTFTSDYSYYLEK([εLys-εLys-γGlu-C18 diacid])QAAQAFVNWLLAGGPSSGAPPPS-OH
modifications: N-terminus assumed
SMILES: CC(C)C[C@H](NC(=O)[C@H](CC(C)C)NC(=O)[C@H](Cc1c[nH]c2ccccc12)NC(=O)[C@H](CC(N)=O)NC(=O)[C@@H](NC(=O)[C@H](Cc1ccccc1)NC(=O)[C@H](C)NC(=O)[C@H](CCC(N)=O)NC(=O)[C@H](C)NC(=O)[C@H](C)NC(=O)[C@H](CCC(N)=O)NC(=O)[C@H](CCCCNC(=O)[C@@H](N)CCCCNC(=O)[C@@H](N)CCCCNC(=O)CC[C@H](NC(=O)CCCCCCCCCCCCCCCCC(=O)O)C(=O)O)NC(=O)[C@H](CCC(=O)O)NC(=O)[C@H](CC(C)C)NC(=O)[C@H](Cc1ccc(O)cc1)NC(=O)[C@H](Cc1ccc(O)cc1)NC(=O)[C@H](CO)NC(=O)[C@H](Cc1ccc(O)cc1)NC(=O)[C@H](CC(=O)O)NC(=O)[C@H](CO)NC(=O)[C@@H](NC(=O)[C@H](Cc1ccccc1)NC(=O)[C@@H](NC(=O)CNC(=O)[C@H](CCC(=O)O)NC(=O)C(C)(C)NC(=O)[C@@H](N)Cc1ccc(O)cc1)[C@@H](C)O)[C@@H](C)O)C(C)C)C(=O)N[C@@H](C)C(=O)NCC(=O)NCC(=O)N1CCC[C@H]1C(=O)N[C@@H](CO)C(=O)N[C@@H](CO)C(=O)NCC(=O)N[C@@H](C)C(=O)N1CCC[C@H]1C(=O)N1CCC[C@H]1C(=O)N1CCC[C@H]1C(=O)N[C@@H](CO)C(=O)O
B4: Compound No. 8 (peptide)
peptide: Y[Aib]EGTFTSDYSIYLEK([εLys-εLys-γGlu-C18 diacid])QAAREFINWLLAGGPSSGAPPPS-NH2
modifications: N-terminus assumed
SMILES: CC[C@H](C)[C@H](NC(=O)[C@H](Cc1ccccc1)NC(=O)[C@H](CCC(=O)O)NC(=O)[C@H](CCCNC(=N)N)NC(=O)[C@H](C)NC(=O)[C@H](C)NC(=O)[C@H](CCC(N)=O)NC(=O)[C@H](CCCCNC(=O)[C@@H](N)CCCCNC(=O)[C@@H](N)CCCCNC(=O)CC[C@H](NC(=O)CCCCCCCCCCCCCCCCC(=O)O)C(=O)O)NC(=O)[C@H](CCC(=O)O)NC(=O)[C@H](CC(C)C)NC(=O)[C@H](Cc1ccc(O)cc1)NC(=O)[C@@H](NC(=O)[C@H](CO)NC(=O)[C@H](Cc1ccc(O)cc1)NC(=O)[C@H](CC(=O)O)NC(=O)[C@H](CO)NC(=O)[C@@H](NC(=O)[C@H](Cc1ccccc1)NC(=O)[C@@H](NC(=O)CNC(=O)[C@H](CCC(=O)O)NC(=O)C(C)(C)NC(=O)[C@@H](N)Cc1ccc(O)cc1)[C@@H](C)O)[C@@H](C)O)[C@@H](C)CC)C(=O)N[C@@H](CC(N)=O)C(=O)N[C@@H](Cc1c[nH]c2ccccc12)C(=O)N[C@@H](CC(C)C)C(=O)N[C@@H](CC(C)C)C(=O)N[C@@H](C)C(=O)NCC(=O)NCC(=O)N1CCC[C@H]1C(=O)N[C@@H](CO)C(=O)N[C@@H](CO)C(=O)NCC(=O)N[C@@H](C)C(=O)N1CCC[C@H]1C(=O)N1CCC[C@H]1C(=O)N1CCC[C@H]1C(=O)N[C@@H](CO)C(N)=O
B5: Compound No. 36 (peptide)
peptide: Y[Aib]EGTFTSDYSIILEK([AEEA-AEEA-γGlu-C18 diacid])QAAREFINWLLAGGPSSGAPPPS-OH
modifications: N-terminus assumed
SMILES: CC[C@H](C)[C@H](NC(=O)[C@H](Cc1ccccc1)NC(=O)[C@H](CCC(=O)O)NC(=O)[C@H](CCCNC(=N)N)NC(=O)[C@H](C)NC(=O)[C@H](C)NC(=O)[C@H](CCC(N)=O)NC(=O)[C@H](CCCCNC(=O)COCCOCCNC(=O)COCCOCCNC(=O)CC[C@H](NC(=O)CCCCCCCCCCCCCCCCC(=O)O)C(=O)O)NC(=O)[C@H](CCC(=O)O)NC(=O)[C@H](CC(C)C)NC(=O)[C@@H](NC(=O)[C@@H](NC(=O)[C@H](CO)NC(=O)[C@H](Cc1ccc(O)cc1)NC(=O)[C@H](CC(=O)O)NC(=O)[C@H](CO)NC(=O)[C@@H](NC(=O)[C@H](Cc1ccccc1)NC(=O)[C@@H](NC(=O)CNC(=O)[C@H](CCC(=O)O)NC(=O)C(C)(C)NC(=O)[C@@H](N)Cc1ccc(O)cc1)[C@@H](C)O)[C@@H](C)O)[C@@H](C)CC)[C@@H](C)CC)C(=O)N[C@@H](CC(N)=O)C(=O)N[C@@H](Cc1c[nH]c2ccccc12)C(=O)N[C@@H](CC(C)C)C(=O)N[C@@H](CC(C)C)C(=O)N[C@@H](C)C(=O)NCC(=O)NCC(=O)N1CCC[C@H]1C(=O)N[C@@H](CO)C(=O)N[C@@H](CO)C(=O)NCC(=O)N[C@@H](C)C(=O)N1CCC[C@H]1C(=O)N1CCC[C@H]1C(=O)N1CCC[C@H]1C(=O)N[C@@H](CO)C(=O)O

These binders were tested against T1, human GIP receptor (assay: cell-based or functional assay).
B1 was tested, and the “hGIPR, CRE Luc 0% HSA EC50 (pM)” value was 28.7 pM and the “hGIPR, CRE Luc 1% HSA EC50 (pM)” value was 687 pM.
Y[Aib]EGTFTSDYSILLEEQAAREFIEWLLAGGPSK([εLys-εLys-γGlu-C16 diacid])GAPPPS-OH [Compound No. 46] was tested, and the “hGIPR, CRE Luc 0% HSA EC50 (pM)” value was 1.8 pM and the “hGIPR, CRE Luc 1% HSA EC50 (pM)” value was 97 pM.
B2 was tested, and the “hGIPR, CRE Luc 0% HSA EC50 (pM)” value was 18.5 pM and the “hGIPR, CRE Luc 1% HSA EC50 (pM)” value was 434 pM.
In the case of Y[Aib]EGTFTSDYSILLEEQAAREFIEWLLAGGPSKGAPPPS-OH (not fully specified (residue 33)) [Compound No. 47], the “hGIPR, CRE Luc 0% HSA EC50 (pM)” value is reported as 3.1 pM and the “hGIPR, CRE Luc 1% HSA EC50 (pM)” value is reported as 156 pM.
With B3 the “hGIPR, CRE Luc 0% HSA EC50 (pM)” value was 14.2 pM and the “hGIPR, CRE Luc 1% HSA EC50 (pM)” value was 362 pM.
B4 was tested, and the “hGIPR, CRE Luc 0% HSA EC50 (pM)” value was 6.7 pM and the “hGIPR, CRE Luc 1% HSA EC50 (pM)” value was 191 pM.
With B5 the “hGIPR, CRE Luc 0% HSA EC50 (pM)” value was 5.5 pM and the “hGIPR, CRE Luc 1% HSA EC50 (pM)” value was 356 pM.
In the case of Y[Aib]EGTFTSDYSILLEEQAAREFIEWLLAGGPSK([AEEA-AEEA-γGlu-C18 diacid])GAPPPS-OH [Compound No. 45], the “hGIPR, CRE Luc 0% HSA EC50 (pM)” value is reported as 3.8 pM and the “hGIPR, CRE Luc 1% HSA EC50 (pM)” value is reported as 1220 pM.

What follows are binders tested against human GLP-1 receptor (human, UniProt P43220 24-463) (assay: cell-based or functional assay).
B1 was tested, and the “hGLP-1R, CRE Luc 0% HSA EC50 (pM)” value was 4.2 pM and the “hGLP-1R, CRE Luc 1% HSA EC50 (pM)” value was 513 pM.
Y[Aib]EGTFTSDYSILLEEQAAREFIEWLLAGGPSK([εLys-εLys-γGlu-C16 diacid])GAPPPS-OH [Compound No. 46] was tested, and the “hGLP-1R, CRE Luc 0% HSA EC50 (pM)” value was 1.5 pM and the “hGLP-1R, CRE Luc 1% HSA EC50 (pM)” value was 111 pM.
For B2, the “hGLP-1R, CRE Luc 0% HSA EC50 (pM)” value was 3.4 pM and the “hGLP-1R, CRE Luc 1% HSA EC50 (pM)” value was 243 pM.
With Y[Aib]EGTFTSDYSILLEEQAAREFIEWLLAGGPSKGAPPPS-OH (not fully specified (residue 33)) [Compound No. 47] the “hGLP-1R, CRE Luc 0% HSA EC50 (pM)” value was 2.1 pM and the “hGLP-1R, CRE Luc 1% HSA EC50 (pM)” value was 154 pM.
With B3 the “hGLP-1R, CRE Luc 0% HSA EC50 (pM)” value was 9.4 pM and the “hGLP-1R, CRE Luc 1% HSA EC50 (pM)” value was 625 pM.
B4 was tested, and the “hGLP-1R, CRE Luc 0% HSA EC50 (pM)” value was 2.3 pM and the “hGLP-1R, CRE Luc 1% HSA EC50 (pM)” value was 82.1 pM.
In the case of B5, the “hGLP-1R, CRE Luc 0% HSA EC50 (pM)” value is reported as 4.7 pM and the “hGLP-1R, CRE Luc 1% HSA EC50 (pM)” value is reported as 414 pM.
Y[Aib]EGTFTSDYSILLEEQAAREFIEWLLAGGPSK([AEEA-AEEA-γGlu-C18 diacid])GAPPPS-OH [Compound No. 45] was tested, and the “hGLP-1R, CRE Luc 0% HSA EC50 (pM)” value was 3.9 pM and the “hGLP-1R, CRE Luc 1% HSA EC50 (pM)” value was 1580 pM.
